In a protein production outcome set (Wang et al. 2014) one finds protein production data, which are given here for 21 sequences.

The nature of the data set: label from the status in PepcDB records.

Regarding “MHTDTERCVRAVQSKDARFDGWFFTAVLTTGIYCRPSCPVVPPKPGNMTFYPSAAACQQAGFRACKRCRPDTSPGSPEWNRRADLTARAMRLIADGVVDREGVPGLASRLGYSTRQVERQLLAELGAGPLALARAQRAQTARLLIETTPLPMADIAFAAGFSSIRTFNDTVREVYALSPSELRTRAPRNRRAATAPGALSLRLPFRAPLNPDNLFGHLAATAVPGVEEWRDGAYRRTLRLPYGHGIVALTPNPDHIACRLTLSDLRDLTVAISRCRRLLDLDADPTAIDDQLRADPLLAPLVDKAPGRRVPRTVDEAEFAVRAVLGQQVSTAAARTHAARLVTAHGDPVDDPEGGLTHLFPSTEALAAVDPETLAMPRTRRTTFTTLVAHLADGSVNPGVESDWAETRARLLALPGFGPWTADVIAMRALGDPDAFLPTDLGIRRAAAELGLPSTPAALTARAAAWRPWRAYAVQYLWATDDHPINFLPV”, the protein production entry is listed as “failed”.

Take “MHTDVNALFAALWQDYIKMTPSAAKIHQLLGHGAPIINDHIALRTFNIAKVNLSVLAKHFTSIGYVDSGDYKFEQKKLIAKHFEHPDPKQPKVFISELLVEEFSPEVQKSIHGLIDQVDIAATTADNFIYSGRHWDVDKATYQALLAESEYAAWVAALGYRANHFTVSINDLPEFERIEDVNQALKQAGFVLNSSGGEVKGSPEVLLEQSSTMADKVVVNFTDGDVEIPSCFYEFARRYPMANGQLYTGFVAASADKIFESTNAMM”: the protein production entry was “not failed”.

Take “MHTFTASSSLGASADALFTWHSRPGAFERLTPPWAPVRLQSFEGIEAGDRAVLRIGPGPLAVRWVAEHYGVEPGRQFCDRQVQGPFSHWEHTHRFTPADDDTGGATLTDRIEYEPPGGALGRQAAPWLEAELRRQFAYRHRITRRDLSLHQQYNPDDRSLTIAVSGASGLVGSSLVPFLTTGGHTVKRLTRSGPTGADEILWDPRTDRVEADKLEGIDAVIHLAGENVFGPWTPAKKQRIYSSRADGTRLLAEALAGLDDPPEVLVSSSAVGYYGDHGADRITEESAPRDAGFLGEVCEAWEAAAEPAAAAGIRTVQMRTGIVLTPAGGALRLMLPAFWLGLGGRVGGRHQYFPWITLDDVIGGIYHALWTDALEGPVNLTAPRPVTMQAYTDTLADVLHRPAFLNVPSSVVRTVGGEMADEMLLTSARAVPQRLQDTGYDFGASALEDGLRHVLGRTAD”: the protein production entry was “failed”.

“MHTISLKRILIYIVLLVTSFALLVGFTVNIVSQVAQYQESLHDQALSYSRIVAGNAASSLVFNDNANEKQRLSSLENTSFIQHVHVYKMDETSNELTFFSSYNKKGLPPIPARFAKLDKLTTPQTNDNYIEVSQPVVLDDEVIGYVYLRGSLEQARLFMWRSIGIASVVFVLTLLLCWLITLRLRKTIVTPLDSVVDVISQVARDKNYSLRLAPSKLVEFDMMAHAFNTMLDRVQQHISRQRRAEEEASQLNTELERQVTQRTQALKESNSELLKTLEQLHQYQGQLVESEKMASLGDMVAGIAHEVNTPIGLSVTASTLLQDKLTIMQEKFDEKRISTSEFERFLSDCDENLQIIYRNLGRAADLVTSFKQVAVDQSSEIDRDIHIPSFMNDVLISVKPRRLDPEKFPIRISCPEGLTVRAKAGPLNQVLINLIVNSMIHAFEGYSSGRVDISFTMVGDDKLEMVYTDNGKGVPSDINRKIFDPFVTTKRGSGGSGLGLHLVYNLVTQVLGGNIHFFSEEKNGVEFIVRFPVTLVSNA”: the protein production entry was “failed”.

As for “MHTPTAVLRPADFLAPIVAALISVLVNYGGTFVLVFQAAELAGLSAAQTTSWVWAVSIGVGVTGIALSWRYREPIITAWSTPGVAFLATVMPFTPYGEVIGAYLAAALGFVVLGLSGAFEKLVRMIPAGIAAGLLAGILLQFGINAFGGASADPLLVIALLVSYALLKRYTSRFAVVGILVIGLGLLAAQQRVDFAALHLSLAAPVFEMPRFSLHAMLGVALPLFVITLTGQYMPGMLVLRNDGFKTSANPILVATGLGSLVMAPFGAHTFNVAAITAAICTGRDAHEDPRKRYIAGLACGVFYILVGLFGVTLATLFMVLPKTFITTLAGLALLGTIGGSLASAMADARTRETALITFLATAANVTLLGVGGAFWGLVAGLAAHGLIHFRQPEPAAARPALLSPTSQDTR”, the protein production entry is “failed”.

“MHTSVQHAKTCLAVTSVSPIYVFGKTTFVSELIEQAGGKNCVETIQSAYPTVDVEYILRANPDVFIFNSTDQQKLFFETYPLLKQCKGYITNQLFVIDDSIMSRPGIRLPILKDSLVSILSKLEHHHHHH”: the protein production entry is “failed”.

With “MHVLNILWVVFGIGLMLVLNLKFKINSMVALLVAALSVGMLAGMDLMSLLHTMKAGFGNTLGELAIIVVFGAVIGKLMVDSGAAHQIAHTLLARLGLRYVQLSVIIIGLIFGLAMFYEVAFIMLAPLVIVIAAEAKIPFLKLAIPAVAAATTAHSLFPPQPGPVALVNAYGADMGMVYIYGVLVTIPSVICAGLILPKFLGNLERPTPSFLKADQPVDMNNLPSFGVSILVPLIPAIIMISTTIANIWLVKDTPAWEVVNFIGSSPIAMFIAMVVAFVLFGTARGHDMQWVMNAFESAVKSIAMVILIIGAGGVLKQTIIDTGIGDTIGMLMSHGNISPYIMAWLITVLIRLATGQGVVSAMTAAGIISAAILDPATGQLVGVNPALLVLATAAGSNTLTHINDASFWLFKGYFDLSVKDTLKTWGLLELVNSVVGLIIVLIISMVA”, the protein production entry is “failed”.

For the sequence “MHYQPKQDLLNDRIILVTGASDGIGREAAMTYARYGATVILLGRNEEKLRQVASHINEETGRQPQWFILDLLTCTSENCQQLAQRIAVNYPRLDGVLHNAGLLGDVCPMSEQNPQVWQDVMQVNVNATFMLTQALLPLLLKSDAGSLVFTSSSVGRQGRANWGAYAASKFATEGMMQVLADEYQQRLRVNCINPGGTRTAMRASAFPTEDPQKLKTPADIMPLYLWLMGDDSRRKTGMTFDAQPGRKPGISQ”, the protein production entry is “failed”.

For the sequence “MIAAPTQLAIMPFPNIDPIALSIGPLAIHWYGIAYVAGIMLGWFYARRLARTDRLWPNDTSPISAQHLDDFILWAAGGIVLGGRIGYILFYDMAAVAANPIRAIEIWNGGMSFHGGLIGTTIAMILFARRNGIPVWSMFDIIAAVAPIGLLFGRIANFINGELWGRIADVPWAVVFPTGGPFARHPSQLYEAGLEGLVLVVLLAIAIYVFKALKTPGTVTGIFVCGYALSRIFVEFFREPDAQIGYLAGNWLTMGMVLSTPMFLLGLWAVLRARSATKSA”, the protein production entry is given as “not failed”.

As for “MIAITLLVVIDQVALSQTFPILTIIYALATILPAWGVLVRRLHDIGRSGWWMLISCVPLVGGIILFVFTVMDSQQGDNQFGASPKAAL”, the protein production entry is on record as “failed”.

As for “MIALAASSLGNTPIASFNRHFRFRLHPRNPLIQAAVSPSSSSSSPTASSGFDLSSLESAINKKDSNGVKEALDKLSEEGWAKKWSSQPYLSRRTTSLRELTTLGIKNAETLAIPSVRNDAAFLFTVVGSTGFIAVLAGQLPGDWGFFVPYLVGSISLVVLAVGSVSPGLLQAAISGFSTFFPDYQERIAAHEAAHFLGTLEKFKSFDSKVAYLIGLPILGYSLDIGKEHVNLIDERLAKLIYSGKLDSKELDRLAAVAMAGLAAEGLKYDKVIGQSADLFSLQRFINRSQPKISNEQQQNLTRWAVLYSASLLKNNKTIHEALMAAMSKNASVLECIQTIETAS”, the protein production entry is recorded as “failed”.

For the sequence “MIAQQFNRARHILRHNLVRPFYQPKFYLESGKLAGFEALLRWYDEDNQIQLPKLIINAFEDYSLASRLSEKMQLNIFKDMASWINQGLQLVPVSINAAPVEFLKDNYAELLLERLNQFEIPYHLIEIEITEHLLDDQGKNFISRALAKLKQNGIRIALDDFGTGHSSLTRLANLPVDCLKIDCDFVQRMEQEKFISALVQSVILMSNNLGIDVVAEGIESQEQLELLKQQGCEVGQGFLFSQALAPENARALLS”, the protein production entry was “failed”.

“MICLEKVEDIPRLQELFAQILIVHHQARSDVLKVKGSKFTDKELEGVIGDANKPVFVYEDEAGTILCHLFLIIKEVSENDGPQKPIKTLFIDDLCVEEKARGQKLGEKLYQFALDYATEQECYNATLHVWNDNQGTLDFYEHLGVKPRYTEMKTVLKLEHHHHHH”: the protein production entry is listed as “failed”.

“MIDAQMSERFPARINILAVNSPGSLAEITQVISANDANIQNLSFIRTAPDFTEIMIDLEVWDLKHLNRIFSQLKKAGSVSTVRRGHGLEHHHHHH”: the protein production entry is “failed”.

Take “MIDCAIIGGGPAGLSAGLYATRGGVKNAVLFEKGMPGGQITGSSEIENYPGVKEVVSGLDFMQPWQEQCFRFGLKHEMTAVQRVSKKDSHFVILAEDGKTFEAKSVIIATGGSPKRTGIKGESEYWGKGVSTCATCDGFFYKNKEVAVLGGGDTAVEEAIYLANICKKVYLIHRRDGFRCAPITLEHAKNNDKIEFLTPYVVEEIKGDASGVSSLSIKNTATNEKRELVVPGFFIFVGYDVNNAVLKQEDNSMLCKCDEYGSIVVDFSMKTNVQGLFAAGDIRIFAPKQVVCAASDGATAALSVISYLEHH”: the protein production entry is listed as “failed”.

Take “MIDEKFLIESNELVESSKIVMVGTNGENGYPNIKAMMRLKHDGLKKFWLSTNTSTRMVERLKKNNKICLYFVDDNKFAGLMLVGTIEILHDRASKEMLWTDGCEIYYPLGIDDPDYTALCFTAEWGNYYRHLKNITFKIDEIYNY”: the protein production result is on record as “not failed”.

For “MIDIHSHIVFDVDDGPKTLEESLSLIEESYRQGVRIIVSTSHRRKGMFETPEDIIFKNFSIVKHEAEKRFEHLQILYGGELYYTSDMLEKLKLKQIPTLNNTKFALIEFSMQTSWKDIHTALSNVLMLGITPVVAHIERYNALENQKERVKEIINMGCYTQINSSHILKQKLFNDKHKRFKKRARYFLEENLVHFVASDMHNLDVRPPFLAEAYKIICRDFGKERANQLFIENAQSILKNHYI”, the protein production entry was “failed”.

With “MIDLNEALAKDRWIGRLASHLDGFEALLDGQGYAKTTVQQKIKLLAGFSAWVERQDVPLSLLGEEDADLFLTELGLRPRRGDAWTIRQLVRYLRDTGGVPVLLPEVDTSAKGKLIDAFGEFLRKERGLSASTLTNYLPIIRGFLDEQFGGKDPGFDHLRVGDVHRFIVRRAQAGSLGRAKLAVTALRSFLRFLQQRGLLATDLAVAVPGIAGWRLAHLPKALRAEQVERLLASCDRRTPAGRRDYAVLMLLARLGLRGGEVSALTLDDLDWDCGEIVVHGKGQRLARLPLPADVGAALVDYLRQDRPACSTRRVFIRTRAPRRGFVSQSTICCIVRRALKRAGLTPAFKGAHLLRHSLATDLLRRGASLVEIGQLLRHSQPNTTQIYAKVDIAALRAIALPWPGVAS”, the protein production result is given as “failed”.

Take “MIDSQFQFTVLTPTYNRAVTLHRVFQSLQRQTCRDFEWVVVDDGSTDNTHEVVRAWQAQADFPIRYVWQHNQHKKTAFNRGVREARGMLVVGLDSDDEIPPDALAILKDAWEGIPADRRETYVAVTGLCARPDGSIVGDRFPQDVFDSTAVDMYFRYRVQGEKFGAMRADVLRRFPFPEDVAGFVPESLVWWAISRAGYLSRFINRVVRVYHDTPGGLSQGGVSLSSNIQGLYLLAWDMLQHHLDWFRYRPREFIMAAARYTRFRLHLDNSGLPTAVQAYRLTQPSARLLVLLMWPLGYLLYRRDRRRGVA”: the protein production entry was “failed”.

Consider “MIDTFERTGPLMEASSYPAWAQQLINDCSPAKARVVEHELYQQMRDAKLSPQIMRQYLIGGWPVVEQFAVYMAKNLTKTRFGRHPGEDMARRWLMRNIRVELNHADYWVNWCAAHDVTLEDLHDQRVAPELHALSHWCWQTSSSDSLAVAMAATNYAIEGATGEWSAVVCSTGVYAEAFAEETRKKSMKWLKMHAQYDDAHPWEALEIICTLVGNKPSLQLQAELRQAVTKSYDYMYLFLERCIQLDKVKSPRGRVAALEM”, for which the protein production entry is given as “not failed”.

For the sequence “MIDVLVQLKSEELILKQRVITAVVALIIFIPIVFLGGTLIEIAALALAVVAMSEVLIMKRILLVTPEAIISILGTLFLVAPKSWMHDLPSQINTPFVSLIFAIALMVRVVFSKNRFNFDDAGVLTLTMLYIGFGFNMFVQARTVGLGMLMYLLLTVWSTDSGAYLVGRKIGKTKLAPQISPNKTWEGSIGGTIVAVIVGIIFSVTGLIHYGILATILMTLFLSIAGQLGDLVESSLKRYYGVKDSGRILPGHGGILDRFDSLLLVLPMAYLLGLL”, the protein production entry is on record as “failed”.
